The series is described as follows: yeast display, Sf9 membrane polyspecificity reagent, FACS + sequencing; frameworks hold sequencing errors. In short, it runs like this: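 Sorting gates, low and high (top ~1%), were placed on anti-HA fluorescence to track expression and on streptavidin fluorescence to track reagent binding. A clone's polyreactivity label is taken from the gate it came out of. The reagent was 10% biotinylated, detergent-solubilized Sf9 membrane, applied for 1 hour at 4 °C to galactose-induced yeast display cells.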
Consider “QVQLVESGGGLVQAGGSLRLSCAASGSIFVNNAMGWYRQAPGKERELVAAISSRSSRTFYADSVKGRFTISRDNAKNTVYLQMNSLKPEDTAVYYCAVKKRAPDGDYWGQGTQVTVSS”, for which the “polyreactivity (PSR sort gate)” value is on record as “high polyreactivity”. To “QVQLVESGGGLVQAGGSLRLSCAASGSTFRYNAMGWYRQAPGKERELVAAISKSGGSTYYADSVKGRFTISRDNAKNTVYLQMNSLKPEDTAVYYCAAKAYINNYDYWGQGTQVTVSS” belongs “high polyreactivity”; to “QVQLVESGGGLVQAGGSLRLSCAASGSIFTVYAMGWYRQAPGKERELVASISKSGGSTYYADSVKGRFTISRDNAKNTVYLQMNSLKPEDTAVYYCAAESGRTYSHRHYDSWGQGTQVTVSS”, “low polyreactivity”. To “QVQIVESGGGLVQAGGSLRLSCAASGSIFQGYAMGWYRQAPGKERELVAAITNRGGNTYYADSVKGRFTISRDNAKYSVYLQMNSLKPEDTAVYYCAADPRYSHSFSGYYDYWGQGTQVTVSS” belongs “high polyreactivity”; to “QVQLVESGGGLVQAGGSLRLSCAASGSIFRRNAMGWYRQAPGKERELVAGIRGSGGSTYYADSVKGRFTISRDNAKNTVYLQMNSLKPEDTAVYYSAARRSYYHGSYDYWGQGTQVTVSS”, “high polyreactivity”. To “QVQLVESGGGLVQAVRSLRLSCAASGFTFNGNAMGWYRQAPGKDRELVAAISYSGGSTYYADSVKGRFTISRDNAKNTVYLQMNSLKPEDTAVYYCAADRTAYSVRAYTKDHSGHDYWGQGTQVTVSS” belongs “low polyreactivity”. On to “QVQLVESGGGLVQAGGSLRLSCAASGSTQRFYAMGWYRQAPGKERELVAVISRGGSTYFADSVKGRFTISRDNAKNTVYLQMNSLKPEDTAVYYCAAYHRTSAARPIYDYWGQGTQVTVSS”, for which the “polyreactivity (PSR sort gate)” value is recorded as “low polyreactivity”. Then “QVQLVESGGGLVQAGGSIRLTCTPSGIIFGTYAMGWYIQAPGKERELVAAISSSGVSTYYADSVKGRFTISRDNAKNTVYLQMNSLKPEDTAVYYCNARGSNGRSDYDYWGQCTQVTVSS”, with “high polyreactivity”; and “QVQLVESVGGLVQAGGSLRLSSAASGFTFTHYAMGWYRQAPGKERELVAAISTSGGSTYYADSVKGRFTISRDNAKNTVYLQMNSLKPEDTAVYYCAARRDGWVQWGYYYWGQGTQVTVSS”, with “low polyreactivity”; and “QVQLVESGGGLVQAGGSLRLSCAASGRIFYAYAMGWYRQAPGKEREMVAAISKGGGSTYYADSVKGRFTISRDNAKNSVYLQMNSLKPEDTAVYYCNAQQYPYHIKYDYWGQGSQVTVSS”, with “low polyreactivity”. Consider “QVQLVESGGGLVQAGGSLRLSCAASGSTFRLNAMGRYRQAPGKERELVAAISRSTGTTHYADSVKGRFTISRDNAKNTVYLQMKSLKPEDTAVYYCATDRAKWHKNGDLGYWGQGTQVTVSS”, for which the “polyreactivity (PSR sort gate)” value is reported as “low polyreactivity”. To “QVQLVESGGGLVQAGGSLRLSCAASGRTFDPYAMVWYRQAPGKERELVAAISSGGSTNYADSVKGRFTISRDNAMYTVYLQMNSLKPEDTAVYFCATDSGDGEGDYWGQGTQVTVSS” belongs “low polyreactivity”; to “QVQLVESGGALVQAGGSLRLSCAASGNIFVYYAMGGYRQAPGKERELVAAITSDVSTYYADSVKGRFTISRDNAKNTVYLQMNSLKPEDTAVYYCATTGYGSYVIYWGQGTQVTVSS”, “low polyreactivity”. Take “QVQLVESGGGLVQAGGSLRLSCAASGFIFSSYAMGWYRQAPGKERELVAAISRSGGRTNYADSVKGRFTISRDNAKNTVYLQMNSLKPDDTAVYYCNARGRGKYPPYGYDYWGQGTQVTVSS”: the “polyreactivity (PSR sort gate)” value is recorded as “high polyreactivity”. “QVQLVESGGGLVQAGGSLRLSCAAYGRTFFSYTMGWYRQAPGKERELVASITWSGGSTYYADSVKGRFTISRDNAKNTVYLQMNSLKPEDTAVYYCAADEKLYITGYDYWGQGTQVNVSS”: the “polyreactivity (PSR sort gate)” value is listed as “low polyreactivity”. Take “QVQLVESGGGLVQAGGSLRLSCAASGRTFGQYTMGWYRQAPGKERELVAGITRSGSRTYYADSVKGRFTISRDNAKNTVYLQMNSLKPEDTAVYYCAARVYKSQGGLPEYDYWGQGTQVTVSS”: the “polyreactivity (PSR sort gate)” value is on record as “high polyreactivity”.

For the sequence “QVQLVESGGGLVQAGGSLRLSCAASGIIFYEYVMGWYRQAPGKERELVAAISRSGGSTYYADSVKGRFTISRDNAKNTVYLQMNSLKPEDTAVYYCAVDAYRYWWTTYVSDFDYWGQGTQVTVSS”, the “polyreactivity (PSR sort gate)” value is on record as “high polyreactivity”. Turning to “QVQLVESGGGLVQAGGSLRLSCAASGRTLGKYAMGWYRQAPGKERELVAAIRWTGGNTYYADSVKGRFTISRDNAKNTVYLQMNSLKPEDTAVYYCAAAYWNDWSQYDYWGQGTQVTVSS”, the “polyreactivity (PSR sort gate)” value is reported as “high polyreactivity”. Then “QVQLVESGGGLVQAGGSLRLSCAASGSTFRANAMGWYRQAPGKESELVADIRFSDGSTYYADSVKGRFTISRDNAKNTVYLQMNSLKPEDTAVYYCAARPSGRGYYLLGYWGQGTQVTVSS”, with “low polyreactivity”; and “QVQHVESGGGLDQAGGSLRLSCAASGFIFGWYAMGWYRPAPGKERELVAAITWSGVRTYYADSVKGRFTISRDNAKNTVYLQMHSLKPEDTAVYYCARAGGSVGRGYKDQDGRGDYWGQGTEVTVSS”, with “low polyreactivity”; and “QVQLVESGGGLVQAGGSLRLSCAASGNILPVYAMGWYRQAPGKEREFVAAITSRGGSTYYADSVKGRFTISRDNAKITVYLQMNSLKPDDTAVYYCAAKYLRAYGYWGQGTQVTVSS”, with “high polyreactivity”. Then “QVQLVESGGGLVQAGGSLRLSCAASGRTFRTNAMGWYRQAPGKESELVADITYSGDSTYDADSVKGRFTISRDNAKNNVYLQMNSLKPEDTAVYYCNARLLSGPGYDYWGQGTQVTVSS”, with “low polyreactivity”; and “QVQLVESGGGLVQAGGTLRLSCAASGRTFYGNAMGWYRQAPGKERELVAVITRRGDTTYYADSVKGRFTISRDNAKNTVYLQMNSLKPEDTAVYYCAASYTGGYTPRQKYNRMGYWGQGTQVSVSS”, with “high polyreactivity”. For “QVQLVESGGGLVQAGGSLRLSCAASGFIFRDYEMGWYRQAPGKERELVAAISWRGGTYYADSVKGRFTISRDNAKNTVYLQMNSLKPEDTAGYYCNATRYRLRPSGVRYKYNYWGQGTQVTVSS”, the “polyreactivity (PSR sort gate)” value was “low polyreactivity”. Then “QVKLVESGGGLVKAGGSLRLSCAASGSISDWYAMGWYIQAPGKERELVAAISNSDGSTYYADSEKGRFTISRDNAKNTVYLQMNSLQPEYTAVYYCNASDAHEDRKSEYWGQGTQVTVSS”, with “low polyreactivity”; and “QVQLVESGGGLVQAGGSLRLSCAASGSTFDTYAMGWYRQAPGKEMELVAVISSGGGTYYADSVKGRFTISRDNAKNTVYLQMNSLKPEDTAVYYCAADRPTPYGYESTYDYWGQGTQVTVSS”, with “low polyreactivity”. To “QVQLLESGGGLVQAGGSLRLSCAASGNIFQVNAMGWYRQAPGKERELVASISRRGGSTNYADSVKGRFTISRDNAKNTVYLQMNSLKPEDTAVYYCAAVARRGSYLGQRLDYWGQGTQVTVSS” belongs “high polyreactivity”; to “QVQLVESGGGLVQAGGSLRLSCAASGSTFHRNAMGWSRQAPGKERELVAAISFSGGRTYYADSVKGRFTISRDNAKNTVNLQMNSLKPEDTAVYYCAAVTASPGSYPDDYWGQGTQVTVSS”, “low polyreactivity”; to “QVQLVESGGGLVQAGGSLRLSCAASGRIFNPYAMGWYRQAPWKERELVAAIRRSGVDTYYADSVKGRFTNSRDNAKNTVYFQMNSLKPEDTAVYYCNAVYKRIGYSEFDYWGQGTQVTVSS”, “low polyreactivity”. To “QVQLVESGGGLVQAGGSLRLSCAASGSTFVRYDMGWYRQAPGKERELVADISWSGVSTYADSVKGRFTISRDNAKNTVYLQMNSLKPEDTAVYYCAKDSDLYQRGGYYWGQGTQVTVSS” belongs “low polyreactivity”.

Regarding “QVQLVESGGGLVQAGGSLRLSCAASGITFRDYAMGWYRQAPGKERELVAAISRSVGSTYYADSVKGRFTISRDNAKNTVYLQMNSLKPEDTAVYYCAALSQREFDYWGQGTQVTVSS”, the “polyreactivity (PSR sort gate)” value is given as “high polyreactivity”. Then “QVQLVESGGGLVQAGGSLRLSCAASGLTFPPYAMGWYRQAPGKERELVATISFSTGNTYYADSVKGRFTISRDNAKNTVYLQLNSLKPEDTADYYCNKVFVLPYKFVAWFDSWGQGTQVTVSS”, with “low polyreactivity”.

With “QVQLVESVGGLGQAGGSLRLSCAASGYIFRPDAMGWYRQEPGKERELVAVISSGGSTYYADSVKGRFTISRDNAKNTVYLQMNSLKPEDTAVYYCNRTLPSIGGTTYEYWRQGTQVTVSS”, the “polyreactivity (PSR sort gate)” value is given as “low polyreactivity”. Then “QVQLVESGGGLVQAGGSLRLSCAASGFIFEAYTMGWSRQAPGKERELVASIDWDGGSTYYADSVKGRFTISRDNAKNTVYLQMNSLKPEDTAVYYCAADSRQYDELGDYDYWGQGTQVTVSS”, with “low polyreactivity”; and “QVPLVESGGGLVQAGGSLRLSCAASGSTLWVYAMGWSRQAPGKERELVAAITQSTGDTHYADSVKGRFTISRDNAKNTVYLQMNSLKPEDTAVYYCAADSYLSVYDPYGDWGQGTQVTVSS”, with “low polyreactivity”; and “QVQLVESGGGLVQAGGSLRLSCYASGGTFRWYAMGWSRQAPGKERELVAAISYSGGPTYADSVKGRFTISRDNAKNTVYLQMNSLKPEDTAVYYCNAVRYITHYDYWGQGTQVTVSS”, with “high polyreactivity”. To “QVQLEESGGGLVQAGGSLRLSCAASGSTFYLYDMGWYRQAPGKERELVAVISWSGGSTSYADSVKGRFTISRDNAKNTIYLQMNSLKPEDTAVYYCNTDFYHWGQGTQVTVSS” belongs “low polyreactivity”; to “QVQLVESGGGLVQAGGSLRLSCAASGITFKSYAMGWYRQAPGKERELVAAIARRGGSTYYADSVKGRFTISRDNAKNTVYLQMNSLKPEDTAVYYCAADSGREPKGPSRLTYWGQGTQVTVSS”, “high polyreactivity”; to “QGQLVESGGGLVQAGGSLRFSCADSGRIFHRYVMGWYRQAPGKERELVAAISWSSGSTSADSVKGRFTISRDNAKNTDYLQMNSLKPEDTAVYYCNASYNGVPARYDYWGQGTQVTVSS”, “low polyreactivity”.

Regarding “QVQLVESGGGLVQAGGSLRLSCAASGRTVSNYAMGWSRQAPGKERELVSAISTGGTSTYYADSVKGRFTISRDYAKNTVYLQMNSLKPEDTAVYYCIAVGGWVTHWLLREGDYWGQGTQVTVSS”, the “polyreactivity (PSR sort gate)” value is reported as “low polyreactivity”.

“QVQLVESGGGLVQAGGSLRLSCAASGRIFRSNAMGWYRQAPRKERELVPAITSSDTSTYYADSVKGRFTISRDNAKNTVYLQMKSLKPEDTAVYYCAADFKPTGTNEPKELDYWGQGTQVTVSS”: the “polyreactivity (PSR sort gate)” value is on record as “low polyreactivity”.

Source of the values: the nanobody polyreactivity screen of Harvey et al. (2022).
